Measured values: paper PMC7157769

Legend:
Assay in all cases: ELISA; affinity-based ELISA; 5 ug/ml of each dockerin-containing enzyme immobilised on a MaxiSorp plate; CBM-Coh modules applied at 0.01 ng/ml to 100 ug/ml (Fig. S4: 1 or 10 ug/ml); detected with rabbit anti-CBD
[1] = biological target: GH74A (GH74A-Doc), dockerin-containing glycoside hydrolase of C. saccharoperbutylacetonicum (Clostridium saccharoperbutylacetonicum N1-4 (HMT))
[2] = biological target: GH9B (GH9B-CBM3c-Doc), dockerin-containing glycoside hydrolase of C. saccharoperbutylacetonicum (Clostridium saccharoperbutylacetonicum N1-4 (HMT))
[3] = biological target: GH44A (GH44A-Doc), dockerin-containing glycoside hydrolase of C. saccharoperbutylacetonicum (Clostridium saccharoperbutylacetonicum N1-4 (HMT))
[4] = biological target: GH48A (GH48A-Doc), dockerin-containing glycoside hydrolase of C. saccharoperbutylacetonicum (Clostridium saccharoperbutylacetonicum N1-4 (HMT))
[5] = biological target: GH5B (GH5B-Doc), dockerin-containing glycoside hydrolase of C. saccharoperbutylacetonicum (Clostridium saccharoperbutylacetonicum N1-4 (HMT))

Substance: X2-Coh2 of the scaffoldin ScaA, fused to a CBM cassette (domain or fragment)
- pEC50 [1]: 4
- pEC50 [2]: 2.4
- pEC50 [3]: 4

Substance: X2-Coh1 of the scaffoldin ScaA, fused to a CBM cassette (domain or fragment)
- pEC50 [4]: 3
- pEC50 [5]: 2.5
- pEC50 [2]: 0.7
- pEC50 [3]: 4
